One block for each binder: values may come before it.
What was measured:
[1] = molecular target: T1, human LILRB1 expressed on cells (human, UniProt Q8NHL6 24-650); experiment: flow cytometry, Jurkat-LILRB1 cells; blocked ligand: APC HLA-G trimer tetramer
T1 construct: In 293T cells it was expressed from pCMV3-LILRB1-GFP; also called CHO-LILRB1; Jurkat-LILRB1

[2] = molecular target: T2, LILRB2-ECD-His (SinoBiological, Cat #: 14132-H08H-B) (Homo sapiens (Human), UniProt Q8N423 22-460, biotinylated (site not stated)); experiment: competition ELISA: plate coated with SEMA4A, biotinylated LILRB2 pre-incubated with titrated antibody, streptavidin-HRP and TMB, OD450
T2 sequence (Q8N423 other isoform, or with tags, fused parts or gaps H08H H08H): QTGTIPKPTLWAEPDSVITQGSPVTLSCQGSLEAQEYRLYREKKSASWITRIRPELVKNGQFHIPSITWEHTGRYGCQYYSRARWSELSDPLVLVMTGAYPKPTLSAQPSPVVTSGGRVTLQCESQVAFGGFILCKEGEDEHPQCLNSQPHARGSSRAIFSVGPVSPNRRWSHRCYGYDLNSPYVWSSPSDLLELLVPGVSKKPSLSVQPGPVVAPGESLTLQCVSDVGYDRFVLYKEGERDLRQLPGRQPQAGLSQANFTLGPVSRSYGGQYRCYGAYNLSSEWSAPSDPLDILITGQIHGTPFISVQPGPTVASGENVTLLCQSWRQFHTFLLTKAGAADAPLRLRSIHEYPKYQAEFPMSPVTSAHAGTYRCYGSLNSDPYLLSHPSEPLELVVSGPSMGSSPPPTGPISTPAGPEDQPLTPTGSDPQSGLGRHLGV

[3] = molecular target: T1, human LILRB1 expressed on cells; experiment: flow cytometry on CHO-LILRB1 cells (CHO-RB1); D2M002-126 as stock or kept in PBS or human plasma at 37 °C for 1, 2 or 3 weeks; labelled anti-human Fc, gMFI
[4] = molecular target: T3, LILRA1 expressed on cells (human, UniProt O75019 17-489); experiment: flow cytometry on CHO-LILRA1 cells (CHO-RA1), titrated antibody, labelled anti-human Fc, gMFI
T3 construct: whole, on cells; GFP-tagged; also called human LILRA1; CHO-LILRA1
T3 sequence (O75019 17-489): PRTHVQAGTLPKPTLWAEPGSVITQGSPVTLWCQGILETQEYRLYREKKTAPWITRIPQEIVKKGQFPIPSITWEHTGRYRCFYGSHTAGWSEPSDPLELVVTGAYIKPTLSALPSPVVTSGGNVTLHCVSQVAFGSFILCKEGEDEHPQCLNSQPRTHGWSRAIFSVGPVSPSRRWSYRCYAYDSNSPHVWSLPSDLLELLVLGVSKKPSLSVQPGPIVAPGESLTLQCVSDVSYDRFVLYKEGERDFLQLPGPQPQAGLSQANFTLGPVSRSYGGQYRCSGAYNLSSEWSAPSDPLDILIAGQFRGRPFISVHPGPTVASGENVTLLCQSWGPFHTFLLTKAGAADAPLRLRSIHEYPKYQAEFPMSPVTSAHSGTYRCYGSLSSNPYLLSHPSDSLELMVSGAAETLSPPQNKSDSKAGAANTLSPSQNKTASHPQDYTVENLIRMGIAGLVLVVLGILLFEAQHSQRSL

[5] = molecular target: T4, LILRB1-ECD-HIS (SinoBiological Cat #: 16014-H02H) (human, UniProt Q8NHL6 24-461); experiment: SPR (Carterra), LILRB1-ECD-his
T4 construct: Bought protein; also called monomeric antigen LILRB1-ECD-HIS; not shown: His tag
T4 sequence (Q8NHL6 other isoform, or with tags, fused parts or gaps H02H H02H): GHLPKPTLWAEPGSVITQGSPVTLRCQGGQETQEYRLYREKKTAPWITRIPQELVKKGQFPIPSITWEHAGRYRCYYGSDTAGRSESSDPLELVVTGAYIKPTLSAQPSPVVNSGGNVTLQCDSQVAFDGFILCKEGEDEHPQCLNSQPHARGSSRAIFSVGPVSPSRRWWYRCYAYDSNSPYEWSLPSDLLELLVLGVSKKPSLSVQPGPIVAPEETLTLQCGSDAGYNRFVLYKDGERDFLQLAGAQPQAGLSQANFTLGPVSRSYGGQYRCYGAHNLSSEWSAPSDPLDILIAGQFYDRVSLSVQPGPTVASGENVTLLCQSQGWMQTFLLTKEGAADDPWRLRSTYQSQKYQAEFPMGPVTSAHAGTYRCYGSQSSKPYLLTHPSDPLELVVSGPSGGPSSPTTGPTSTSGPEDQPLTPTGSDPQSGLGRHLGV

[6] = molecular target: T2, LILRB2-ECD-His (SinoBiological, Cat #: …); experiment: competition ELISA: plate coated with ANGPTL5, biotinylated LILRB2 pre-incubated with titrated antibody, streptavidin-HRP and TMB, OD450
[7] = molecular target: T5, human LILRB2 expressed on cells (human, UniProt Q8N423 22-597); experiment: flow cytometry, Jurkat-LILRB2 cells; blocked ligand: APC HLA-G monomer tetramer
T5 construct: In 293T cells it was expressed from pCMV3-LILRB2-GFP; also called CHO-LILRB2; Jurkat-LILRB2
T5 sequence (Q8N423 other isoform, or with tags, fused parts or gaps limits assumed): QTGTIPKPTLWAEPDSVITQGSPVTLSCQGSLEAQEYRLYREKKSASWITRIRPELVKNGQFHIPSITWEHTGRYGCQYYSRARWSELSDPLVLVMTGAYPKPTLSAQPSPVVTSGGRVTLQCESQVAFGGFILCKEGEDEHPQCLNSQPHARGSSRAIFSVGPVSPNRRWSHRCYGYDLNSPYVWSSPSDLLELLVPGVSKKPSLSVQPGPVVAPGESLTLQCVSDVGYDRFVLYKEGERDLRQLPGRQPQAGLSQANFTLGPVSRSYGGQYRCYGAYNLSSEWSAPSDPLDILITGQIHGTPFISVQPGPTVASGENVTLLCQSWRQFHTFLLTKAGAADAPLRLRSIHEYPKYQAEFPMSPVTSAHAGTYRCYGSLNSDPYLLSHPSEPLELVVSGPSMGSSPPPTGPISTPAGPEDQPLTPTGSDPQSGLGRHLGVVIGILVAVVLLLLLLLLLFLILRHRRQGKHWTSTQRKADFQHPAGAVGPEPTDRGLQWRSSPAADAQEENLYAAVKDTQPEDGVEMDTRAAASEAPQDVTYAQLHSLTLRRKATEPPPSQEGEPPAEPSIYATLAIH

[8] = molecular target: T1, human LILRB1 expressed on cells; experiment: flow cytometry, Jurkat-LILRB1 cells
[9] = molecular target: T1, human LILRB1 expressed on cells; experiment: flow cytometry on CHO-LILRB1 cells, non-linear fit of the curves of FIG. 26A
[10] = molecular target: T6, LILRB2-ECD-HIS (SinoBiological Cat #: 14132-H02H) (human, UniProt Q8N423 22-460); experiment: BLI (Gator), RB2-ECD-his
T6 construct: Bought protein; also called monomeric antigen LILRB2-ECD-HIS; not shown: His tag
T6 sequence (Q8N423 other isoform, or with tags, fused parts or gaps H02H H02H): as the sequence (Q8N423 other isoform, or with tags, fused parts or gaps H08H H08H) above

[11] = molecular target: T5, human LILRB2 expressed on cells; experiment: flow cytometry, Jurkat-LILRB2 cells
[12] = molecular target: T3, LILRA1 expressed on cells; experiment: flow cytometry on CHO-LILRA1 cells, non-linear fit of the curves of FIG. 26E
[13] = molecular target: T2, LILRB2-ECD-His (SinoBiological, Cat #: …); experiment: competition ELISA: plate coated with MAG, biotinylated LILRB2 pre-incubated with titrated antibody, streptavidin-HRP and TMB, OD450
[14] = molecular target: T2, LILRB2-ECD-His (SinoBiological, Cat #: …); experiment: competition ELISA: plate coated with CD1C, biotinylated LILRB2 pre-incubated with titrated antibody, streptavidin-HRP and TMB, OD450
[15] = molecular target: T5, human LILRB2 expressed on cells; experiment: flow cytometry on CHO-LILRB2 cells, non-linear fit of the curves of FIG. 26B
[16] = molecular target: T4, LILRB1-ECD-HIS (SinoBiological Cat #: …); experiment: BLI (Gator), RB1-ECD-his
[17] = molecular target: T6, LILRB2-ECD-HIS (SinoBiological Cat #: …); experiment: SPR (Carterra), LILRB2-ECD-his
[18] = molecular target: T7, LILRA6 expressed on cells (human, UniProt Q6PI73 24-481); experiment: flow cytometry on CHO-LILRA6 cells (CHO-RA6), titrated antibody, labelled anti-human Fc, gMFI
T7 construct: whole, on cells; GFP-tagged; also called human LILRA6; CHO-LILRA6
T7 sequence (Q6PI73 24-481): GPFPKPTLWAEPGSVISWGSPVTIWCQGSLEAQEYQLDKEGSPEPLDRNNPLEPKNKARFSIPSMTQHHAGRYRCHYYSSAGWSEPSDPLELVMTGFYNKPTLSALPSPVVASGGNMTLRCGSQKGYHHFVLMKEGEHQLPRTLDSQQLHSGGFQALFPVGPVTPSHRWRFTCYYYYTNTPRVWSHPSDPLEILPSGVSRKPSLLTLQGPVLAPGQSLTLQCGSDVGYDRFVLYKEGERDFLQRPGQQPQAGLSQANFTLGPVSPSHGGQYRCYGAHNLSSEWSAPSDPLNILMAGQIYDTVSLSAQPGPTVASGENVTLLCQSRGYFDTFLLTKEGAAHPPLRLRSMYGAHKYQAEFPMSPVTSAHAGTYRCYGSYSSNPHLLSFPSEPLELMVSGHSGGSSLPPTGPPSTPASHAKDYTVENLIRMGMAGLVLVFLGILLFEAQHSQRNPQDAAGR

[19] = molecular target: T2, LILRB2-ECD-His (SinoBiological, Cat #: …); experiment: competition ELISA: plate coated with ANGPTL2, biotinylated LILRB2 pre-incubated with titrated antibody, streptavidin-HRP and TMB, OD450
[20] = molecular target: T1, human LILRB1 expressed on cells; experiment: flow cytometry on CHO-LILRB1 cells (CHO-RB1), titrated antibody, labelled anti-human Fc, gMFI
[21] = molecular target: T5, human LILRB2 expressed on cells; experiment: flow cytometry on CHO-LILRB2 cells (CHO-RB2); D2M002-126 as stock or kept in PBS or human plasma at 37 °C for 1, 2 or 3 weeks; labelled anti-human Fc, gMFI
[22] = molecular target: T2, LILRB2-ECD-His (SinoBiological, Cat #: …); experiment: competition ELISA: plate coated with CD1D, biotinylated LILRB2 pre-incubated with titrated antibody, streptavidin-HRP and TMB, OD450
[23] = molecular target: T5, human LILRB2 expressed on cells; experiment: flow cytometry on CHO-LILRB2 cells (CHO-RB2), titrated antibody, labelled anti-human Fc, gMFI
[24] = molecular target: T8, LILRB3 expressed on cells (human, UniProt O75022 24-631); experiment: flow cytometry on CHO-LILRB3 cells (CHO-RB3), titrated antibody, labelled anti-human Fc, gMFI
T8 construct: whole, on cells; Expressed with a GFP tag from the bought plasmid; also called human LILRB3; CHO-LILRB3

[25] = molecular target: T1, human LILRB1 expressed on cells; experiment: flow cytometry, CHO-LILRB1 cells
[26] = molecular target: T5, human LILRB2 expressed on cells; experiment: flow cytometry, CHO-LILRB2 cells
[27] = molecular target: T5, human LILRB2 expressed on cells; experiment: flow cytometry, CHO-LILRB2 cells; remark: listed apart in the source
[28] = molecular target: T4, LILRB1-ECD-HIS (SinoBiological Cat #: …); experiment: SPR (Carterra LSA), antibody captured, antigen injected;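 note: kd obtained from kinetic analysis of antibody binding to the antigen, with association and dissociation phases fitted in the instrument software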
[29] = molecular target: T6, LILRB2-ECD-HIS (SinoBiological Cat #: …); experiment: as above

T1 sequence (Q8NHL6 other isoform, or with tags, fused parts or gaps limits assumed): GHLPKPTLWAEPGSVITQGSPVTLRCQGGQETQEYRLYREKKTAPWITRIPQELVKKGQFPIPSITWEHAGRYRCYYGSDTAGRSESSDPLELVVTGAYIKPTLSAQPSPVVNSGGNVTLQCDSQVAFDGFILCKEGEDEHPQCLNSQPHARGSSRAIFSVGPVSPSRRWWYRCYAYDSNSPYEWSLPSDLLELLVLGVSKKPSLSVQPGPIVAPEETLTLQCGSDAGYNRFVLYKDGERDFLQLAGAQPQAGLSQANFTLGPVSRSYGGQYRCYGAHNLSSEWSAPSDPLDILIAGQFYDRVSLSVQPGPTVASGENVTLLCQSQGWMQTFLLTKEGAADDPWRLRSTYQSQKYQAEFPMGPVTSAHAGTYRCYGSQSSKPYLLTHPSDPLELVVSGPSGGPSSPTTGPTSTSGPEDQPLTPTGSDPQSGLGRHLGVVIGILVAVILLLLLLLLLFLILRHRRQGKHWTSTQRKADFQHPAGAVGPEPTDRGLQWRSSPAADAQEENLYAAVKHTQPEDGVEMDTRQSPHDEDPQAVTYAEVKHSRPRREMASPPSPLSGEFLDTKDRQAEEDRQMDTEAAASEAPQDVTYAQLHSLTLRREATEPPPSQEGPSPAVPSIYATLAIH

- IC50 [1]: 0.304 µg/mL
- IC50 (read off the curve) [2]: ~1 µg/mL
- EC50 (read off the curve) [3]: ~0.3 µg/mL
- EC50 (read off the curve) [4]: ~0.1 µg/mL
- Kd [5]: 0.515 nM
- koff [5]: 2.17e-05 s⁻¹
- kon [5]: 42100 M⁻¹ s⁻¹
- IC50 (read off the curve) [6]: ~1 µg/mL
- IC50 [7]: 0.015 µg/mL
- EC50 [8]: 1.45 µg/mL
- EC50 [9]: 0.388 µg/mL
- MaxMFI [9]: 113000
- Kd [10]: 0.0482 nM
- EC50 [11]: 0.081 µg/mL
- EC50 [12]: 0.102 µg/mL
- MaxMFI [12]: 27500
- IC50 (read off the curve) [13]: ~1 µg/mL
- IC50 (read off the curve) [14]: ~2 µg/mL
- EC50 [15]: 0.206 µg/mL
- MaxMFI [15]: 33600
- Kd [16]: 0.366 nM
- Kd [17]: 0.119 nM
- koff [17]: 5.89e-05 s⁻¹
- kon [17]: 496000 M⁻¹ s⁻¹
- IC50 (read off the curve) [19]: ~1 µg/mL
- EC50 (read off the curve) [20]: ~0.4 µg/mL
- EC50 (read off the curve) [21]: ~0.1 µg/mL
- IC50 (read off the curve) [22]: ~2 µg/mL
- EC50 (read off the curve) [23]: ~0.2 µg/mL
B1: D2M002-126 (antibody, V domains shown)
VH: QVQLVQSGAEVKKPGASVKVSCKASGYTFTSYWIEWVRQAPGQGLEWIGEILPGDESTNYNAKFKGRVTFTTDTSTSTAYMELRSLRSDDTAVYYCARSGAGGYDSGAFAYWGQGTLVTVSS
VL: AIQLTQSPSSLSASVGDRVTITCRASESVDTYGNSFMHWYQQKPGKAPKLLVYRTSNLESGVPSRFSGSGSGTDFTLTISSLQPEDFATYYCQQSNEDPWTFGGGTKVEIK
notes: Humanized and optimized variant of D2M002-026
- binding result [18]: no binding (tested: about 30 µg/mL (log10 about 1.5))
- binding result [24]: no binding (tested: about 30 µg/mL (log10 about 1.5))

- binding result [25]: no binding (tested: 5 µg/mL)
- EC50 [26]: 0.061 µg/mL
- gMFI (max) [26]: 22900
- EC50 (read off the curve) [27]: ~0.06 µg/mL
- Kd [28]: 1000 nM
- Kd [29]: 4.85 nM
B2: D2M002-044 (antibody, human IgG1, V domains shown)
VH: EVQLQQSGAELVRPGALVKLSCKGSGFNIKDYYMHWVRQRPEQGLEWIGWIDPENGNTVYAPKFQGKASITSDTSSNIAYLQFSSLTSEDTAVYYCARSRDHGAMDYWGQGTSVTVSS
VL: DVQITQSPAIMSASPGEKVTLTCSASSSVSSSNLYWYQQKPGSSPKLWIYSTSNLASGVPARFSGSGFGTSYALTISSMEAEDAASYFCHQWSSYPYTFGGGTKLEIK
notes: Hit; also called clone #44
